For test [1], the target named is T1, human MC1 receptor (human, UniProt Q01726 1-317). Briefly: cell-based or functional assay.
Test [2] has as its target T2, human MC4 receptor (human, UniProt P32245 1-332). The test can be described thus: cell-based or functional assay.
Test [3] concerns the target T1, human MC1 receptor. Briefly: SPA competition binding, displacement of 125I-NDP-α-MSH, BHK membranes with human MC1R. The protocol: (§1) The SPA Binding assay was performed in 96-well white opaque plates. Each well contained: 0.5 mg PVT-WGA SPA beads, MC1 receptor expressing membrane diluted to give approximately 10% specific tracer binding, 50.000 dpm ¹²⁵I-NDP-α-MSH and relevant dilutions of test compound. The final volume in each well was 200 μl. […] Plates were incubated overnight (22-24 hours) at room temperature before counting for 2 minutes per well, using a TopCount NXT scintillation counter. Displacement of radio ligand is measured as reduction in light emission from SPA beads, and IC₅₀ values are calculated by nonlinear regression analysis of sigmoidal dose-response curves in GraphPad Prism (GraphPad Software, La Jolla, Calif., USA).

Test [4] addresses T2, human MC4 receptor. Briefly: SPA competition binding, displacement of 125I-NDP-α-MSH, BHK membranes with human MC4R. The protocol: as §1, with “MC4” for “MC1”

Positions of bridges follow the written chain, without caps; N, C: chain ends. Non-standard residues stand in square brackets, D forms with d. dPhe(4-Cl) = N[C@H](Cc1ccc(Cl)cc1)C(=O)O; dPhe(4-Me) = Cc1ccc(C[C@@H](N)C(=O)O)cc1; Nle = CCCC[C@H](N)C(=O)O; Thz = O=C(O)[C@@H]1CSCN1; Aib = CC(C)(N)C(=O)O

T1 sequence (Q01726 whole entry): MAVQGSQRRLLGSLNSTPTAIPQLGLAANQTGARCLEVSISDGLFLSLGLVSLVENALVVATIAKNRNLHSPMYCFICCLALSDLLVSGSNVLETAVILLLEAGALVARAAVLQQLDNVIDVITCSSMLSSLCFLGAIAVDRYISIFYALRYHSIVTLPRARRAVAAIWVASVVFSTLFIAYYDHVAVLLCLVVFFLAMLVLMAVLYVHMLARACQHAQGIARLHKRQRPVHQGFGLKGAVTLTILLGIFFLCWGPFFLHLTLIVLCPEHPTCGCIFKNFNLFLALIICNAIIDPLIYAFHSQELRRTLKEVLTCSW
T2 sequence (P32245 whole entry): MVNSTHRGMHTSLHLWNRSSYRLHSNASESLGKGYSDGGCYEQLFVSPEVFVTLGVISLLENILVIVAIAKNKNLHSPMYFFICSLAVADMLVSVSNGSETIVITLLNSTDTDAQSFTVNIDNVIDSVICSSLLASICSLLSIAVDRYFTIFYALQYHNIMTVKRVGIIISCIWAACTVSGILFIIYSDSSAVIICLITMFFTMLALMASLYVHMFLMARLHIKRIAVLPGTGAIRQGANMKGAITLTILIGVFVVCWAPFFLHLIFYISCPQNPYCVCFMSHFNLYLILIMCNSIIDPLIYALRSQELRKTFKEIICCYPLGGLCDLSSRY

B1: Ac-Arg-c[Cys-Pro-His-D-Phe-His-Trp-Cys]-Pro-Pro-D-Arg-Glu-Nle-Lys-NH2 (peptide)
peptide: Ac-RCPH[dF]HWCPP[dR]E[Nle]K-NH2
modifications: disulfide 2-8
SMILES: CCCC[C@H](NC(=O)[C@H](CCC(=O)O)NC(=O)[C@@H](CCCNC(=N)N)NC(=O)[C@@H]1CCCN1C(=O)[C@@H]1CCCN1C(=O)[C@@H]1CSSC[C@H](NC(=O)[C@H](CCCNC(=N)N)NC(C)=O)C(=O)N2CCC[C@H]2C(=O)N[C@@H](Cc2c[nH]cn2)C(=O)N[C@H](Cc2ccccc2)C(=O)N[C@@H](Cc2c[nH]cn2)C(=O)N[C@@H](Cc2c[nH]c3ccccc23)C(=O)N1)C(=O)N[C@@H](CCCCN)C(N)=O
notes: Synthetic cyclic peptide; also called Chem. 2
With B1, the “MC1R cAMP EC50” value in test [1] was determined as 288 nM. Moreover, the “MC4R cAMP EC50” value in test [2] stood at 1.17 nM. Also, the IC50 (in general, the concentration needed to halve the response being measured) stood at 144 nM in test [3] and 0.71 nM in test [4].

B2: Ac-Arg-c[Cys-Pro-His-D-Phe-His-Trp-Cys]-Pro-Pro-D-Arg-Glu-Nle-Arg-NH2 (peptide)
peptide: Ac-RCPH[dF]HWCPP[dR]E[Nle]R-NH2
modifications: disulfide 2-8
SMILES: CCCC[C@H](NC(=O)[C@H](CCC(=O)O)NC(=O)[C@@H](CCCNC(=N)N)NC(=O)[C@@H]1CCCN1C(=O)[C@@H]1CCCN1C(=O)[C@@H]1CSSC[C@H](NC(=O)[C@H](CCCNC(=N)N)NC(C)=O)C(=O)N2CCC[C@H]2C(=O)N[C@@H](Cc2c[nH]cn2)C(=O)N[C@H](Cc2ccccc2)C(=O)N[C@@H](Cc2c[nH]cn2)C(=O)N[C@@H](Cc2c[nH]c3ccccc23)C(=O)N1)C(=O)N[C@@H](CCCNC(=N)N)C(N)=O
notes: Synthetic cyclic peptide; also called Chem. 8
As for B2, the “MC1R cAMP EC50” value in test [1] was determined as 270 nM. The “MC4R cAMP EC50” value in test [2] was found to be 0.6 nM. Moreover, the IC50 came out at 128 nM in test [3] and 0.68 nM in test [4].

B3: Ac-D-Arg-c[Cys-Pro-His-D-Phe-His-Trp-Cys]-Pro-Pro-D-Arg-Glu-Nle-NH2 (peptide)
peptide: Ac-[dR]CPH[dF]HWCPP[dR]E[Nle]-NH2
modifications: disulfide 2-8
SMILES: CCCC[C@H](NC(=O)[C@H](CCC(=O)O)NC(=O)[C@@H](CCCNC(=N)N)NC(=O)[C@@H]1CCCN1C(=O)[C@@H]1CCCN1C(=O)[C@@H]1CSSC[C@H](NC(=O)[C@@H](CCCNC(=N)N)NC(C)=O)C(=O)N2CCC[C@H]2C(=O)N[C@@H](Cc2c[nH]cn2)C(=O)N[C@H](Cc2ccccc2)C(=O)N[C@@H](Cc2c[nH]cn2)C(=O)N[C@@H](Cc2c[nH]c3ccccc23)C(=O)N1)C(N)=O
notes: Synthetic cyclic peptide; also called Chem. 7
Take B3: the “MC1R cAMP EC50” value in test [1] is 649 nM. Further, the “MC4R cAMP EC50” value in test [2] came out at 2.72 nM. Also, the 50% inhibitory concentration (IC50) in test [3] was determined as 816 nM; in test [4], 6.31 nM.

B4: Ac-c[Cys-Pro-His-D-Phe-His-Trp-Cys]-Pro-Pro-D-Arg-Glu-Nle-D-Arg-Arg-NH2 (peptide)
peptide: Ac-CPH[dF]HWCPP[dR]E[Nle][dR]R-NH2
modifications: disulfide 1-7
SMILES: CCCC[C@H](NC(=O)[C@H](CCC(=O)O)NC(=O)[C@@H](CCCNC(=N)N)NC(=O)[C@@H]1CCCN1C(=O)[C@@H]1CCCN1C(=O)[C@@H]1CSSC[C@H](NC(C)=O)C(=O)N2CCC[C@H]2C(=O)N[C@@H](Cc2c[nH]cn2)C(=O)N[C@H](Cc2ccccc2)C(=O)N[C@@H](Cc2c[nH]cn2)C(=O)N[C@@H](Cc2c[nH]c3ccccc23)C(=O)N1)C(=O)N[C@H](CCCNC(=N)N)C(=O)N[C@@H](CCCNC(=N)N)C(N)=O
notes: Synthetic cyclic peptide; also called Chem. 14
As to B4, the “MC1R cAMP EC50” value in test [1] was 1160 nM. The “MC4R cAMP EC50” value in test [2] is 1.39 nM. Also, the half-inhibitory concentration (IC50) in test [3] came to 443 nM; in test [4], 0.86 nM.

B5: Ac-c[Cys-THAZ-His-D-Phe-His-Trp-Cys]-Pro-Pro-D-Arg-Glu-Nle-D-Arg-D-Arg-NH2 (peptide)
peptide: Ac-C[Thz]H[dF]HWCPP[dR]E[Nle][dR][dR]-NH2
modifications: disulfide 1-7
SMILES: CCCC[C@H](NC(=O)[C@H](CCC(=O)O)NC(=O)[C@@H](CCCNC(=N)N)NC(=O)[C@@H]1CCCN1C(=O)[C@@H]1CCCN1C(=O)[C@@H]1CSSC[C@H](NC(C)=O)C(=O)N2CSC[C@H]2C(=O)N[C@@H](Cc2c[nH]cn2)C(=O)N[C@H](Cc2ccccc2)C(=O)N[C@@H](Cc2c[nH]cn2)C(=O)N[C@@H](Cc2c[nH]c3ccccc23)C(=O)N1)C(=O)N[C@H](CCCNC(=N)N)C(=O)N[C@H](CCCNC(=N)N)C(N)=O
notes: Synthetic cyclic peptide; also called Chem. 12
For the molecule B5, the “MC1R cAMP EC50” value in test [1] came out at 801 nM. In test [2], the “MC4R cAMP EC50” value was 0.24 nM. Moreover, the half-inhibitory concentration (IC50) in test [3] is 235 nM; in test [4], 0.45 nM.

B6: Ac-Arg-c[Cys-Pro-His-D-Phe-His-Trp-Cys]-Pro-Pro-D-Arg-Glu-Nle-NH2 (peptide)
peptide: Ac-RCPH[dF]HWCPP[dR]E[Nle]-NH2
modifications: disulfide 2-8
SMILES: CCCC[C@H](NC(=O)[C@H](CCC(=O)O)NC(=O)[C@@H](CCCNC(=N)N)NC(=O)[C@@H]1CCCN1C(=O)[C@@H]1CCCN1C(=O)[C@@H]1CSSC[C@H](NC(=O)[C@H](CCCNC(=N)N)NC(C)=O)C(=O)N2CCC[C@H]2C(=O)N[C@@H](Cc2c[nH]cn2)C(=O)N[C@H](Cc2ccccc2)C(=O)N[C@@H](Cc2c[nH]cn2)C(=O)N[C@@H](Cc2c[nH]c3ccccc23)C(=O)N1)C(N)=O
notes: Synthetic cyclic peptide; also called Chem. 1
As for B6, the “MC4R cAMP EC50” value in test [2] worked out at 1.51 nM. For the same molecule, the half-maximal inhibitory concentration (IC50) stood at 374 nM in test [3] and 1.47 nM in test [4].

B7: Ac-c[Cys-Aib-His-D-Phe-His-Trp-Cys]-Pro-Pro-D-Arg-Glu-Nle-D-Arg-D-Arg-NH2 (peptide)
peptide: Ac-C[Aib]H[dF]HWCPP[dR]E[Nle][dR][dR]-NH2
modifications: disulfide 1-7
SMILES: CCCC[C@H](NC(=O)[C@H](CCC(=O)O)NC(=O)[C@@H](CCCNC(=N)N)NC(=O)[C@@H]1CCCN1C(=O)[C@@H]1CCCN1C(=O)[C@@H]1CSSC[C@H](NC(C)=O)C(=O)NC(C)(C)C(=O)N[C@@H](Cc2c[nH]cn2)C(=O)N[C@H](Cc2ccccc2)C(=O)N[C@@H](Cc2c[nH]cn2)C(=O)N[C@@H](Cc2c[nH]c3ccccc23)C(=O)N1)C(=O)N[C@H](CCCNC(=N)N)C(=O)N[C@H](CCCNC(=N)N)C(N)=O
notes: Synthetic cyclic peptide; also called Chem. 13
As to B7, the “MC1R cAMP EC50” value in test [1] was 456 nM. For the same molecule, in test [2], the “MC4R cAMP EC50” value came out at 0.33 nM. The IC50 came out at 214 nM in test [3] and 0.44 nM in test [4].

B8: Ac-c[Cys-Pro-His-D-MePhe-His-Trp-Cys]-Pro-Pro-D-Arg-Glu-Nle-D-Arg-D-Arg-NH2 (peptide)
peptide: Ac-CPH[dPhe(4-Me)]HWCPP[dR]E[Nle][dR][dR]-NH2
modifications: disulfide 1-7
SMILES: CCCC[C@H](NC(=O)[C@H](CCC(=O)O)NC(=O)[C@@H](CCCNC(=N)N)NC(=O)[C@@H]1CCCN1C(=O)[C@@H]1CCCN1C(=O)[C@@H]1CSSC[C@H](NC(C)=O)C(=O)N2CCC[C@H]2C(=O)N[C@@H](Cc2c[nH]cn2)C(=O)N[C@H](Cc2ccc(C)cc2)C(=O)N[C@@H](Cc2c[nH]cn2)C(=O)N[C@@H](Cc2c[nH]c3ccccc23)C(=O)N1)C(=O)N[C@H](CCCNC(=N)N)C(=O)N[C@H](CCCNC(=N)N)C(N)=O
notes: Synthetic cyclic peptide; also called Chem. 9
As to B8, the “MC1R cAMP EC50” value in test [1] was determined as 601 nM. Moreover, the “MC4R cAMP EC50” value in test [2] is 2.15 nM. Also, the IC50 in test [3] amounted to 290 nM; in test [4], 0.88 nM.

B9: Ac-c[Cys-Pro-His-D-Cl-Phe-His-Trp-Cys]-Pro-Pro-D-Arg-Glu-Nle-D-Arg-D-Arg-NH2 (peptide)
peptide: Ac-CPH[dPhe(4-Cl)]HWCPP[dR]E[Nle][dR][dR]-NH2
modifications: disulfide 1-7
SMILES: CCCC[C@H](NC(=O)[C@H](CCC(=O)O)NC(=O)[C@@H](CCCNC(=N)N)NC(=O)[C@@H]1CCCN1C(=O)[C@@H]1CCCN1C(=O)[C@@H]1CSSC[C@H](NC(C)=O)C(=O)N2CCC[C@H]2C(=O)N[C@@H](Cc2c[nH]cn2)C(=O)N[C@H](Cc2ccc(Cl)cc2)C(=O)N[C@@H](Cc2c[nH]cn2)C(=O)N[C@@H](Cc2c[nH]c3ccccc23)C(=O)N1)C(=O)N[C@H](CCCNC(=N)N)C(=O)N[C@H](CCCNC(=N)N)C(N)=O
notes: Synthetic cyclic peptide; also called Chem. 10
As for B9, the “MC4R cAMP EC50” value in test [2] came to 0.43 nM. The concentration for half-maximal inhibition (IC50) amounted to 172 nM in test [3] and 0.28 nM in test [4].

(Values after US20210221867A1 (Novo Nordisk, published 2021).)
